In EP4670784A1 (Eberhard Karls Universität Tübingen (Medizinische Fakultät), dated 2025):
Positions count from the first letter of the chain named.

T1: Recombinant human G-CSFR (Glu25-Pro621, 381-GR/CF, R&D Systems) (human, UniProt Q99062 25-621)
T1 construct: range 25-621; Bought protein, amine-coupled to a CM5 chip for SPR; also called rhG-CSFR; granulocyte-colony stimulating factor receptor
T1 sequence (looked up): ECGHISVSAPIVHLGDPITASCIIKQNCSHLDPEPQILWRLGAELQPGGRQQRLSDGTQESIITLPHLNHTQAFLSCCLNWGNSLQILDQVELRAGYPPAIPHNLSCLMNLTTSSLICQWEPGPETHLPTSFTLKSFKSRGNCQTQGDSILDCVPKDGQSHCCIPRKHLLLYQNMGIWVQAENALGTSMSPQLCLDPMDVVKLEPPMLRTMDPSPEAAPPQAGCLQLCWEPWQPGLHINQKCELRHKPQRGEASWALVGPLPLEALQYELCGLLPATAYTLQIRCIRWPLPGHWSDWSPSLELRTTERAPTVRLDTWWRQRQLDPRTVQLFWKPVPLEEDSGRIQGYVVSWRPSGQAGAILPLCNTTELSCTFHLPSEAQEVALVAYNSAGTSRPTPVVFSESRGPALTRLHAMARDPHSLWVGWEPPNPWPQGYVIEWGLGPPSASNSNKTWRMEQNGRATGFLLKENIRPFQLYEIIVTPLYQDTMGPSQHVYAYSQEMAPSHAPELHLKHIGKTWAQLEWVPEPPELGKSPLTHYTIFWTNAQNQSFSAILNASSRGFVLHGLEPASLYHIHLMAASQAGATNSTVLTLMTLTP

T2: G-CSFR on NFS-60 cells (UniProt P40223 26-837, limits assumed)
T2 sequence (looked up): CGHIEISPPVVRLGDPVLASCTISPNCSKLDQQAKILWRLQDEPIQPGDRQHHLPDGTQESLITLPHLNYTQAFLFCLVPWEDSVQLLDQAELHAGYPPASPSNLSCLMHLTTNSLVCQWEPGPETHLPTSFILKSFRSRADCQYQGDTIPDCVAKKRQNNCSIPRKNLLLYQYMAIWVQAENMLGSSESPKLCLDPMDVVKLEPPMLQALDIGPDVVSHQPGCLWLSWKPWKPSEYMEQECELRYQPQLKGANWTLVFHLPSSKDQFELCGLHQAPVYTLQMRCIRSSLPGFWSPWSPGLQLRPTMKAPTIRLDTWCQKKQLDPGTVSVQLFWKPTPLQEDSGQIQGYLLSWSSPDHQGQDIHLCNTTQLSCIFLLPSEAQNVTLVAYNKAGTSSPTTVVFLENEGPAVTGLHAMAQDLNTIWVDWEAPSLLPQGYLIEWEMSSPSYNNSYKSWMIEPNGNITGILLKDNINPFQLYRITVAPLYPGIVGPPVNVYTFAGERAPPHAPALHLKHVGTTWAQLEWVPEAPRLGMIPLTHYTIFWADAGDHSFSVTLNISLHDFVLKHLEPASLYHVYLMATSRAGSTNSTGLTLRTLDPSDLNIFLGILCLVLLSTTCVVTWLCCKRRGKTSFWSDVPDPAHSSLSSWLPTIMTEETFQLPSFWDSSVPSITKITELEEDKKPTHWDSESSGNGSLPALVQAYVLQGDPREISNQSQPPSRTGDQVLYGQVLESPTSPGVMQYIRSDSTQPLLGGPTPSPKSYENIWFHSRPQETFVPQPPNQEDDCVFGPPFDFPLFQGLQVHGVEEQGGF

T3: G-CSFR on Kasumi-1 cells (UniProt Q99062 25-836, limits assumed)
T3 sequence (looked up): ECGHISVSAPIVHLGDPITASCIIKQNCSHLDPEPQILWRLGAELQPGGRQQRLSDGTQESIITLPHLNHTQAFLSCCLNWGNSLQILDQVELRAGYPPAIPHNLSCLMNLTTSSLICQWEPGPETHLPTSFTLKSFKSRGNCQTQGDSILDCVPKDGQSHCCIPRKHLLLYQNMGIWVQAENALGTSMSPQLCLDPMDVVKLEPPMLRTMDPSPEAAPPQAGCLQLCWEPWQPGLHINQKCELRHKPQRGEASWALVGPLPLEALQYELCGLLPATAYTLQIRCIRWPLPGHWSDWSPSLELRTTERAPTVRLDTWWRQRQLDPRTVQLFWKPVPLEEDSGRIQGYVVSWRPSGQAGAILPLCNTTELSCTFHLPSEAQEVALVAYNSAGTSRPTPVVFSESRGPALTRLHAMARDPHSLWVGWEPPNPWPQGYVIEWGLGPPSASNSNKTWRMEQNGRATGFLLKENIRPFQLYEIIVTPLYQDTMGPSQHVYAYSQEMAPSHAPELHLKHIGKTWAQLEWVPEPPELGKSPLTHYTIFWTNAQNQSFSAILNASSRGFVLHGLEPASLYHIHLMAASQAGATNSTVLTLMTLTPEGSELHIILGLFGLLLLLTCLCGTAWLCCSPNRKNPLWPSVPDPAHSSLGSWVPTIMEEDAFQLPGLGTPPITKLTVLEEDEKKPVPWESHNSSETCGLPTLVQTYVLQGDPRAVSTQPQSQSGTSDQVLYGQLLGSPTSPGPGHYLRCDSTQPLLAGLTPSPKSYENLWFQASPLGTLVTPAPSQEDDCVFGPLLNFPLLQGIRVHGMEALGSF

B1: boa2 (designed binder)
chain: MAALAAALQSIYRKLAEMQRKLKSLEGISPELGPALDALRYDMADFAILMAQAMEEGLDSLPQSFLRKALEMIRKIQADAAALREKLAATYKGNDRADAAVYDAADLEILLEQAYEILRHLAAA
notes: Strictly monomeric in solution; Expressed from pET28a downstream of an N-terminal His-tag and thrombin cleavage site; also called bivalent-orientation antiparallel design 2
B2: bop3 (designed binder)
chain: MAALDAALYEIYDGLILYQQRLKSLEGISPELGPALDALRYDMADFAYLMAQAMEEGLDSLPQRFLWKALEMIRKIQADAAALREKLAATYKGNDRAAAAQSIARKLEEMLEKAYQILRHLAAA
notes: exclusively monomeric by SEC; Expressed from pET28a downstream of an N-terminal His-tag and thrombin cleavage site
B3: bop2 (designed binder)
chain: B2 chain with E10D, R21Q, K23E, Y48I, R64S, W67R, E112R, I117D
notes: Strictly monomeric in solution; Expressed from pET28a downstream of an N-terminal His-tag and thrombin cleavage site; also called bivalent-orientation parallel design 2
B4: bv6 (designed binder)
chain: MAALAAALAEIYKGLAEYQARLKSLEGISPELGPALDALRYDMADFAILMAQAMEEGLDSLPQSFLRKALEMIRKIQADAAALREKLAATYKGNDRAAAAVEIAAQLEAFLEKAYQILRHLAAA
notes: Expressed from pET28a downstream of an N-terminal His-tag and thrombin cleavage site; Minorly dimeric in solution; also called starting template
B5: bv21 (designed binder)
chain: B4 chain with Y41W, I48Y, S64R, R67W
notes: Expressed from pET28a with N-terminal His-tag and thrombin cleavage site; also called Boskar4 variant bv21
B6: boa1 (designed binder)
chain: B1 chain with R20A, D103I, E116Q
notes: Strictly monomeric in solution; Expressed from pET28a downstream of an N-terminal His-tag and thrombin cleavage site; also called bivalent-orientation antiparallel design 1
B7: bop1 (designed binder)
chain: B2 chain with Y48I, R64S, W67R
notes: De novo four-helix bundle, strictly monomeric in solution; Expressed from pET28a downstream of an N-terminal His-tag and thrombin cleavage site; also called bivalent-orientation parallel design 1
B8: bv23 (designed binder)
chain: B4 chain with I48Y, R67W, K75W
notes: Expressed from pET28a with N-terminal His-tag and thrombin cleavage site; also called Boskar4 variant bv23
B9: bv24 (designed binder)
chain: B4 chain with Y41W, I48C, S64R, R67W
notes: Expressed from pET28a with N-terminal His-tag and thrombin cleavage site; also called Boskar4 variant bv24
B10: bv22 (designed binder)
chain: B4 chain with I48Y, S64R, R67W
notes: Expressed from pET28a with N-terminal His-tag and thrombin cleavage site; also called Boskar4 variant bv22; second-generation variant

Tests used:
[1] = molecular target: T1, Recombinant human G-CSFR (Glu25-Pro621, …); test: SPR, rhG-CSFR on CM5 chip (Fig. 3E)
[2] = molecular target: T1, Recombinant human G-CSFR (Glu25-Pro621, …); test: SPR, Biacore X100, multi-cycle kinetics, rhG-CSFR amine-coupled to CM5 chip, design as analyte, 1:1 model; series of Fig. 6 (from 20 nM)
[3] = molecular target: T2, G-CSFR on NFS-60 cells; test: cell-based or functional assay
[4] = molecular target: T3, G-CSFR on Kasumi-1 cells; test: cell-based or functional assay
[5] = molecular target: T1, Recombinant human G-CSFR (Glu25-Pro621, …); test: SPR, twofold dilution series from 20 nM bop3 against chip-immobilized G-CSFR (Fig. 14B); reference not named
[6] = molecular target: T1, Recombinant human G-CSFR (Glu25-Pro621, …); test: SPR, Biacore X100, multi-cycle kinetics, rhG-CSFR amine-coupled to CM5 chip, design as analyte, 1:1 model; series of Fig. 15C (from 20 nM)
[7] = molecular target: T1, Recombinant human G-CSFR (Glu25-Pro621, …); test: not stated in the sentence (SPR values of Table 2 agree)
[8] = molecular target: T1, Recombinant human G-CSFR (Glu25-Pro621, …); test: SPR, Biacore X100, multi-cycle kinetics, rhG-CSFR amine-coupled to CM5 chip, design as analyte, 1:1 model; series of Fig. 13 (from 125 nM)
[9] = molecular target: T1, Recombinant human G-CSFR (Glu25-Pro621, …); test: SPR, Biacore X100, multi-cycle kinetics, rhG-CSFR amine-coupled to CM5 chip, design as analyte, 1:1 model; series of Fig. 13 (from 31 nM)

| Binder | Kd [2] [nM] | koff [2] [s⁻¹] | kon [2] [M⁻¹ s⁻¹] | Kd [6] [nM] | koff [6] [s⁻¹] | kon [6] [M⁻¹ s⁻¹] | Kd [9] [nM] | koff [9] [s⁻¹] | kon [9] [M⁻¹ s⁻¹] | also measured |
| --- | --- | --- | --- | --- | --- | --- | --- | --- | --- | --- |
| B1 | 1.1 | 0.0013 | 1.4e+06 | – | – | – | – | – | – | fold tighter binding than bv6 [1]: 4 fold |
| B2 | – | – | – | 1.2 | 0.0018 | 1.5e+06 | – | – | – | fold improvement in inhibitory potency compared to bop1, NFS-60 competitive inhibition assay [3]: 3 fold; IC50, Kasumi-1 competitive inhibition assay, 400 pg/mL rhG-CSF [4]: 1.97 nM; fold improvement in the receptor-binding affinity [5]: 10 fold |
| B3 | 0.85 | 0.0013 | 1.9e+06 | – | – | – | – | – | – | fold tighter binding than bv6 [1]: 4 fold |
| B4 | 4.3 | 0.0051 | 1.2e+06 | – | – | – | – | – | – | fold tighter binding than Boskar4 [7]: 12 fold; Kd [8]: 14 nM; koff [8]: 0.0033 s⁻¹; kon [8]: 240000 M⁻¹ s⁻¹ |
| B5 | – | – | – | – | – | – | 1.4 | 0.0011 | 820000 | – |
| B6 | 3.7 | 0.0024 | 690000 | – | – | – | – | – | – | – |
| B7 | 2.7 | 0.0022 | 880000 | 3.2 | 0.0063 | 2e+06 | – | – | – | – |
| B8 | – | – | – | – | – | – | 1.8 | 0.0015 | 860000 | – |
| B9 | – | – | – | – | – | – | 1.7 | 0.0017 | 1e+06 | – |
| B10 | – | – | – | 1.3 | 0.0018 | 1.4e+06 | 1.1 | 0.00092 | 880000 | – |
